Results reported in patent publication US20260184815A1 (published 2026).

B1: M29-D09 (Fab, V domains shown)
VH: EVQLLESGGGLVQPGGSLRLSCAASGFTFSWYTMVWVRQAPGKGLEWVSYIYPSGGATFYADSVKGRFTISRDNSKNTLYLQMNSLRAEDTAVYYCAMGSYDYIWGFYSDHWGQGTLVTVSS
VL: QSALTQPPTVSVSPGQTARITCSGNKLGDKYVAWYQQKPGQSPMLVIYQDTKRPSRVSERFSGSNSANTATLSISGTQALDEADYYCQAWDSSIVIFGGGTRLTVL
notes: HC as printed runs into CH1; also called 559A-M0029-D09
B2: M76-D01 (Fab, V domains shown)
VH: EVQLLESGGGLVQPGGSLRLSCAASGFTFSFYAMHWVRQAPGKGLEWVSGIVPSGGRTHYADSVKGRFTISRDNSKNTLYLQMNSLRAEDTAVYYCATDSSGSPNPLFDYWGQGTLVTVSS
VL: DIVMTQTPPSLPVNPGEPASISCRSSQSLSDDGNTYLDWYLQRPGQSPQLLIHTLSYRASGVPDRFSGSGSGTDFTLKISRVEAEDVGVYYCMQGTHWPPTFGQGTKVEIK
notes: HC as printed runs into CH1 (ends APSPKS as printed)
B3: M10-F10 (Fab, V domains shown)
VH: EVQLLESGGGLVQPGGSLRLSCAASGFTFSFYNMNWVRQAPGKGLEWVSSISPSGGETNYADSVKGRFTISRDNSKNTLYLQMNSLRAEDTAVYYCARGGGAYRNNWWGGFDIWGLGTMVTVSS
VL: DIQMTQSPSSLSASVGDRVTITCRASQSISVYLNWYQHKPGKAPKLLIYGASNLQFGVPSRFSGSGYGTDFTLTISSLQPEDFATYHCQQTFSLFTFGGGTKVEIK
notes: HC as printed runs into CH1
B4: M29-E09 (Fab, V domains shown)
VH: EVQLLESGGGLVQPGGSLRLSCAASGFTFSWYEMGWVRQAPGKGLEWVSSIYSSGGGTMYADSVKGRFTISRDNSKNTLYLQMNSLRAEDTAVYYCARNPQYSGYDRSLSDGAFDIWGQGTMVTVSS
VL: QYELTQPPSVSVSPGQTATITCSGDNLGNKYNSWYQQKPGQSPLLVIYQDTKRPSAIPERFSGSNSGNTATLTISGTQAMDEADYYCQAWDGNVVFGGGTKLTVL
notes: HC as printed runs into CH1
B5: M35-G04 (Fab, V domains shown)
VH: EVQLLESGGGLVQPGGSLRLSCAASGFTFSYYHMSWVRQAPGKGLEWVSVISPSGGSTKYADSVKGRFTISRDNSKNTLYLQMNSLRAEDTAVYYCARGGSSDYAWGSYRRPYYFDYWGQGTLVTVSS
VL: DIQMTQSPATLSLSPGERATLSCRASQSVSSYLAWYQQKPGQAPRLLIYDASNRATGIPARFSGSGSGTDFTLTISSLEPEDFAVYYCQQRSNWPRGFTFGPGTKVDIK
notes: HC as printed runs into CH1; also called 559A-M0035-G04
B6: M145-D01 (Fab, V domains shown)
VH: B5 VH
VL: B5 VL
notes: HC as printed runs into CH1
B7: M110-C12 (Fab, V domains shown)
VH: EVQLLESGGGLVQPGGSLRLSCAASGFTFSYYEMDWVRQAPGKGLEWVSGISSSGGHTAYADSVKGRFTISRDNSKNTLYLQMNSLRAEDTATYYCARERRSSSRARYYYGMDVWGQGTTVTVSS
VL: DIQMTQSPLSLSVTPGEPASISCRSSLSLLHSNGYNYLDWYVQRPGQSPQLLMYLSSTRASGVPDRFSGSGSGTDFTLEISRVEAEDVGVYYCMQPLETPPTFGGGTKVEIK
notes: HC as printed runs into CH1
B8: M73-D06 (Fab, V domains shown)
VH: EVQLLESGGGLVQPGGSLRLSCAASGFTFSRYEMYWVRQAPGKGLEWVSSISSSGGPTAYADSVKGRFTISRDNSKNTLYLQMNSLRAEDTAMYYCAKGTPKWELLLRSIYIENAFDIWGQGTMVTVSS
VL: QSELTQPPSASETPGQRVTISCSGSSSNIGSNTVSWFQQLPGSAPRLLIYNDHRRPSGVPDRFSGSKSGTSASLVISGLQSQDEADYYCSAWDDSLNGVVFGGGTKLTVL
notes: HC as printed runs into CH1
B9: M41-A11 (Fab, V domains shown)
VH: EVQLLESGGGLVQPGGSLRLSCAASGFTFSHYRMSWVRQAPGKGLEWVSSIYPSGGRTVYADSVKGRFTISRDNSKNTLYLQMNSLRAEDTAVYYCAKDKFEWRLLFRGIGNDAFDIWGQGTMVTVSS
VL: QSVLTQPPSVSVSPGQTASITCSGDKLGDKYTSWYQQRPGQSPVLVIYQDIKRPSGIPERFSGSNSGNTATLTISGTQAMDEADYYCQAWDSPNARVFGSGTKVTVL
notes: HC as printed runs into CH1
B10: M145-D11 (Fab, V domains shown)
VH: B9 VH
VL: B9 VL
notes: HC as printed runs into CH1; also called 559A-M0145-D11
B11: M137-E12 (Fab, V domains shown)
VH: EVQLLESGGGLVQPGGSLRLSCAASGFTFSDYRMQWVRQAPGKGLEWVSVIVPSGGNTMYADSVKGRFTISRDNSKNTLYLQMNSLRAEDTAVYYCARGGPGSSIAARRAPTGYYGMDVWGQGTTVTVSS
VL: QSVLIQPPSVSGIPGQRVTISCSGNNSNFGSNTVTWYQQLPGTAPKLLIYSDSRRPSGVPDRFSGSRSDTSASLAISGLQSEDEAEYHCAAWDDSLNGVFGGGTKLTVL
notes: HC as printed runs into CH1
B12: M38-F02 (Fab, V domains shown)
VH: EVQLLESGGGLVQPGGSLRLSCAASGFTFSYYMMVWVRQAPGKGLEWVSYIYSSGGHTVYADSVKGRFTISRDNSKNTLYLQMNSLRAEDTAVYYCARDLFLYDFWSKGAFDIWGQGTMVTVSS
VL: QSVLTQPPSVSVSPGQTASITCSGEKLGDKYVSWYQQKPGQSPSLVICEDSRRPSGIPERFSGSNSGNTATLTISGAQPMDEADYYCQAWDSSTAIFGPGTKVTVL
notes: HC as printed runs into CH1
B13: M27-E05 (Fab, V domains shown)
VH: EVQLLESGGGLVQPGGSLRLSCAASGFTFSWYLMIWVRQAPGKGLEWVSYIYPSGGFTYYADSVKGRFTISRDNSKNTLYLQMNSLRAEDMAVYYCARTEGPLSWGYGMDVWGQGTTVTVSS
VL: not shown
notes: HC as printed runs into CH1
B14: M8-A09 (Fab, V domains shown)
VH: EVQLLESGGGLVQPGGSLRLSCAASGFTFSTYFMLWVRQAPGKGLEWVSSIYPSGGNTVYADSVKGRFTISRDNSKNTLYLQMNSLRAEDTAVYYCARAASPVRNYYYYGMDVWGQGTTVTVSS
VL: QCELTQPPSESVSPGQTANITCSGDKLGNKYAYWYQQKPGQSPVLVIYQDNNRPSGIPERFSGSNSGNTATLTISGTQAIDEANYYCQAWDSRTVVFGGGTKLTVL
notes: HC as printed runs into CH1
B15: M142-H08 (Fab) (Fab, V domains shown)
VH: EVQLLESGGGLVQPGGSLRLSCAASGFTFSAYSMIWVRQAPGKGLEWVSYIRPSGGRTTYADSVKGRFTISRDNSKNTLYLQMNSLRAEDTAVYYCARGGLLLWFRELKSNYFDYWGQGTLVTVSS
VL: DIQMTQSPSSLSAFVGDRVTITCRASQPIDNYLNWYHQKPGKAPKLLIYAASRLQSGVPSRLSGSGFGTDFTLTISSLQPEDFGNYYCQQSYTVPYTFGGGTKVEIR
notes: HC as printed runs into CH1
B16: M146-E12 (Fab, V domains shown)
VH: EVQLLESGGGLVQPGGSLRLSCAASGFTFSRYIMHWVRQAPGKGLEWVSSISPSGGLTSYADSVKGRFTISRDNSKNTLYLQMNSLRAEDTAVYYCAREFENAYHYYYYGMDVWGQGTTVTVSS
VL: DIQMTQSPSSLSASVGDRVTITCRASGDIGNALGWYQQKPGKAPRLLISDASTLQSGVPLRFSGSGSGTEFTLTISSLQPEDFATYYCLQGYNYPRTFGQGTKLEIR
notes: HC as printed runs into CH1

What follows are binders tested against T1, human plasma kallikrein (human, UniProt P03952 20-390; P03952 391-638) (assay: ELISA, biotinylated pKal signal over streptavidin background).
T1 construct: also called pKal; Human pKal
Source text: Abbreviations used: “T/B” is the ELISA signal obtained using of the “target” (biotinylated plasma kallikrein) divided by the ELISA signal of the “background” (streptavidin); both of which were coated on microtiter plates, “nd” is not determined. The symbol “q” refers to the amber suppressible stop codon (TAG), which is translated as glutamine (Q) in strains of E. coli such as the TG1 cells that were used to express the Fab fragments.

T1 sequence (P03952 20-390, chain 1 of 2): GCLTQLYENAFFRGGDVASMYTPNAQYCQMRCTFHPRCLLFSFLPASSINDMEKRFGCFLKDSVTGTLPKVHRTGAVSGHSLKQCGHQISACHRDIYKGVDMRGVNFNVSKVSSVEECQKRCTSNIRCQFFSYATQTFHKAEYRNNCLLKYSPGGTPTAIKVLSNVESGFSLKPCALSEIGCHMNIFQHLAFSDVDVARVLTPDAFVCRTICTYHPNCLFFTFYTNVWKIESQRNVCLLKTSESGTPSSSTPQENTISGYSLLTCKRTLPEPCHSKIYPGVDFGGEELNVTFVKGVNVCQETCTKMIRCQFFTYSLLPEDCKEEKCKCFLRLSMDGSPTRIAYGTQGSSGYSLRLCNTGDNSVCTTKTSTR
T1 sequence (P03952 391-638, chain 2 of 2): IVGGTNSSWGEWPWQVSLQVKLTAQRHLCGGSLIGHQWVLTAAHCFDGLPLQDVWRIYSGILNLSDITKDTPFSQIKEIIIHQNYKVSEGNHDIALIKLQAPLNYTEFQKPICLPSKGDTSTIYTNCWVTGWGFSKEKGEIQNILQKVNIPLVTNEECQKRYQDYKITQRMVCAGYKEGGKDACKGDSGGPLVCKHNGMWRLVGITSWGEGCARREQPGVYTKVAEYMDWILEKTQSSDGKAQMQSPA

| Binder | ELISA (T/B) |
| --- | --- |
| B1 | 47.5 |
| B2 | 11.2 |
| B3 | 39.2 |
| B4 | 28.8 |
| B5 | 11.1 |
| B6 | 6.2 |
| B7 | 2.4 |
| B8 | 4 |
| B9 | 28 |
| B10 | 40 |
| B11 | 4.5 |
| B12 | 33.5 |
| B13 | 41.3 |
| B14 | 5.4 |
| B15 | 29.9 |
| B16 | 49.6 |
